# T1: human CD19 (human, UniProt P15391 20-556)
# T1 construct: also called B-cell surface antigen B4; B-cell antigen CD19
# T1 sequence: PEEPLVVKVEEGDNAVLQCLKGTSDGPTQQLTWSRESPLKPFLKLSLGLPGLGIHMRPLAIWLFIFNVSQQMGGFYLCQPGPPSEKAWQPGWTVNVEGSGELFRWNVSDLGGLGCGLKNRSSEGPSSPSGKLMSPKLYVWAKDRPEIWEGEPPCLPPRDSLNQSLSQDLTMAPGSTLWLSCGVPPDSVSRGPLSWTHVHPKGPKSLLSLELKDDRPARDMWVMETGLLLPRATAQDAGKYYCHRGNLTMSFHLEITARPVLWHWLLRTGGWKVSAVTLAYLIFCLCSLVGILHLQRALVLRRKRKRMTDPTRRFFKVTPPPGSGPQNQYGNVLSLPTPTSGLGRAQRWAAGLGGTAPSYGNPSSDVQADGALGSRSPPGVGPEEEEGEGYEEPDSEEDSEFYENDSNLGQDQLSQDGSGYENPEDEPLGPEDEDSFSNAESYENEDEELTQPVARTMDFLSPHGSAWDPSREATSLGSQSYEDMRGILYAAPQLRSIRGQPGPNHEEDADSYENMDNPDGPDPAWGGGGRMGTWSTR
# Molecular target: T1, human CD19
# Experiment: DELFIA competition on Raji cells: unlabeled antibody competes with Eu-labeled anti-CD19 for surface CD19 [lower panel]
Binder,IC50 (read off the curve) [nM],binding result
"H4L0 (antibody, V domains shown, also called 4G7 H4L0) VH: EVQLQQSGPEVKKPGTSVKVSCKASGYTFTSYVMHWVRQAPGKGLVWVSYINPYNDGTKYNESLKSRVTISSDKSISTAYLQMNSLRAEDTAVYYCARGTYYYGSRVFDYWGQGTLVTVSS VL: DIVMTQAAPSIPVTPGESVSISCRSSKSLLNSNGNTYLYWFLQRPGQSPQLLIYRMSNLASGVPDRFSGSGSGTAFTLRISRVEAEDVGVYYCMQHLEYPFTFGAGTKLELK",~10,
"H2L3 (antibody, V domains shown, also called 4G7 H2L3) VH: QVQLQESGSGLVKPGGSLRLSCAASGYTFTSYVMHWVRQAPGKGLEWMGYINPYNDGTKYNESLKSRVTISSDKSISTAYMELSSLRAEDTAVYYCARGTYYYGSRVFDYWGQGTLVTVSS VL: DIVMTQSPATLSVSPGERATISCRSSKSLLNSNGNTYLYWFLQKPGQSPQLLIYRMSNLASGVPDRFSGSGSGTDFTLTISRVEAEDVGVYYCMQHLEYPFTFGAGTKLEIK",,binds
"H3L3 (antibody, V domains shown, also called 4G7 H3L3) VH: EVQLVESGGGLVQPGRSLRLSCAASGYTFTSYVMHWVRQMPGKGLEWMGYINPYNDGTKYNEKFQGRVTITSDKSTSTAYMELSRLRSDDTAVYYCARGTYYYGSRVFDYWGQGTLVTVSS VL: DIVMTQSPATLSVSPGERATISCRSSKSLLNSNGNTYLYWFLQKPGQSPQLLIYRMSNLASGVPDRFSGSGSGTDFTLTISRVEAEDVGVYYCMQHLEYPFTFGAGTKLEIK",~20,

# Further lines, results first:
IC50 (read off the curve) [nM],binding result,Binder
~8,,"H0L0 (antibody, original 4G7 variable regions; also called 4G7 H0L0) heavy chain: EVQLQQSGPELIKPGASVKMSCKASGYTFTSYVMHWVKQKPGQGLEWIGYINPYNDGTKYNEKFKGKATLTSDKSSSTAYMELSSLTSEDSAVYYCARGTYYYGSRVFDYWGQGTTLTVSS light chain: DIVMTQAAPSIPVTPGESVSISCRSSKSLLNSNGNTYLYWFLQRPGQSPQLLIYRMSNLASGVPDRFSGSGSGTAFTLRISRVEAEDVGVYYCMQHLEYPFTFGAGTKLELK"
~20,,"H1L3 (antibody, V domains shown, also called 4G7 H1L3) VH: EVQLVESGGGLVKPGGSLKLSCAASGYTFTSYVMHWVRQAPGKGLEWIGYINPYNDGTKYNEKFQGRVTISSDKSISTAYMELSSLRSEDTAMYYCARGTYYYGSRVFDYWGQGTLVTVSS VL: DIVMTQSPATLSVSPGERATISCRSSKSLLNSNGNTYLYWFLQKPGQSPQLLIYRMSNLASGVPDRFSGSGSGTDFTLTISRVEAEDVGVYYCMQHLEYPFTFGAGTKLEIK"
~10,,"H3L2 (antibody, V domains shown, also called 4G7 H3L2) VH: EVQLVESGGGLVQPGRSLRLSCAASGYTFTSYVMHWVRQMPGKGLEWMGYINPYNDGTKYNEKFQGRVTITSDKSTSTAYMELSRLRSDDTAVYYCARGTYYYGSRVFDYWGQGTLVTVSS VL: DIVMTQSPSSLSASVGDRVTISCRSSKSLLNSNGNTYLYWFQQKPGQSPQLLIYRMSNLASGVPDRFSGSGSGTEFTLTISSLQPEDVAVYYCMQHLEYPFTFGAGTKLEIK"
,binds,"H4L3 (antibody, V domains shown, also called 4G7 H4L3) VH: EVQLQQSGPEVKKPGTSVKVSCKASGYTFTSYVMHWVRQAPGKGLVWVSYINPYNDGTKYNESLKSRVTISSDKSISTAYLQMNSLRAEDTAVYYCARGTYYYGSRVFDYWGQGTLVTVSS VL: DIVMTQSPATLSVSPGERATISCRSSKSLLNSNGNTYLYWFLQKPGQSPQLLIYRMSNLASGVPDRFSGSGSGTDFTLTISRVEAEDVGVYYCMQHLEYPFTFGAGTKLEIK"

# Molecular target: T1, human CD19
# Experiment: DELFIA competition on Raji cells: unlabeled antibody competes with Eu-labeled anti-CD19 for surface CD19 [upper panel]
Binder,binding result,IC50 (read off the curve) [nM]
"H2L2 (antibody, V domains shown, also called 4G7 H2L2) VH: QVQLQESGSGLVKPGGSLRLSCAASGYTFTSYVMHWVRQAPGKGLEWMGYINPYNDGTKYNESLKSRVTISSDKSISTAYMELSSLRAEDTAVYYCARGTYYYGSRVFDYWGQGTLVTVSS VL: DIVMTQSPSSLSASVGDRVTISCRSSKSLLNSNGNTYLYWFQQKPGQSPQLLIYRMSNLASGVPDRFSGSGSGTEFTLTISSLQPEDVAVYYCMQHLEYPFTFGAGTKLEIK",binds,
"H1L0 (antibody, V domains shown, also called 4G7 H1L0) VH: EVQLVESGGGLVKPGGSLKLSCAASGYTFTSYVMHWVRQAPGKGLEWIGYINPYNDGTKYNEKFQGRVTISSDKSISTAYMELSSLRSEDTAMYYCARGTYYYGSRVFDYWGQGTLVTVSS VL: DIVMTQAAPSIPVTPGESVSISCRSSKSLLNSNGNTYLYWFLQRPGQSPQLLIYRMSNLASGVPDRFSGSGSGTAFTLRISRVEAEDVGVYYCMQHLEYPFTFGAGTKLELK",,~20
"H0L1 (antibody, V domains shown, also called 4G7 H0L1) VH: EVQLQQSGPELIKPGASVKMSCKASGYTFTSYVMHWVKQKPGQGLEWIGYINPYNDGTKYNEKFKGKATLTSDKSSSTAYMELSSLTSEDSAVYYCARGTYYYGSRVFDYWGQGTTLTVSS VL: DIVMTQSPATLSLSPGERATLSCRSSKSLLNSNGNTYLYWFQQKPGQSPQLLIYRMSNLASGVPDRFSGSGSGTEFTLTISSLEPEDFAVYYCMQHLEYPFTFGAGTKLEIK",,~3
"H2L0 (antibody, V domains shown, also called 4G7 H2L0) VH: QVQLQESGSGLVKPGGSLRLSCAASGYTFTSYVMHWVRQAPGKGLEWMGYINPYNDGTKYNESLKSRVTISSDKSISTAYMELSSLRAEDTAVYYCARGTYYYGSRVFDYWGQGTLVTVSS VL: DIVMTQAAPSIPVTPGESVSISCRSSKSLLNSNGNTYLYWFLQRPGQSPQLLIYRMSNLASGVPDRFSGSGSGTAFTLRISRVEAEDVGVYYCMQHLEYPFTFGAGTKLELK",binds,
"H0L3 (antibody, V domains shown, also called 4G7 H0L3) VH: EVQLQQSGPELIKPGASVKMSCKASGYTFTSYVMHWVKQKPGQGLEWIGYINPYNDGTKYNEKFKGKATLTSDKSSSTAYMELSSLTSEDSAVYYCARGTYYYGSRVFDYWGQGTTLTVSS VL: DIVMTQSPATLSVSPGERATISCRSSKSLLNSNGNTYLYWFLQKPGQSPQLLIYRMSNLASGVPDRFSGSGSGTDFTLTISRVEAEDVGVYYCMQHLEYPFTFGAGTKLEIK",,~3
"H0L2 (antibody, V domains shown, also called 4G7 H0L2) VH: EVQLQQSGPELIKPGASVKMSCKASGYTFTSYVMHWVKQKPGQGLEWIGYINPYNDGTKYNEKFKGKATLTSDKSSSTAYMELSSLTSEDSAVYYCARGTYYYGSRVFDYWGQGTTLTVSS VL: DIVMTQSPSSLSASVGDRVTISCRSSKSLLNSNGNTYLYWFQQKPGQSPQLLIYRMSNLASGVPDRFSGSGSGTEFTLTISSLQPEDVAVYYCMQHLEYPFTFGAGTKLEIK",,~2

# Further lines, results first:
binding result,IC50 (read off the curve) [nM],Binder
,~5,"H0L0 (antibody, original 4G7 variable regions; also called 4G7 H0L0) heavy chain: EVQLQQSGPELIKPGASVKMSCKASGYTFTSYVMHWVKQKPGQGLEWIGYINPYNDGTKYNEKFKGKATLTSDKSSSTAYMELSSLTSEDSAVYYCARGTYYYGSRVFDYWGQGTTLTVSS light chain: DIVMTQAAPSIPVTPGESVSISCRSSKSLLNSNGNTYLYWFLQRPGQSPQLLIYRMSNLASGVPDRFSGSGSGTAFTLRISRVEAEDVGVYYCMQHLEYPFTFGAGTKLELK"
binds,,"H3L0 (antibody, V domains shown, also called 4G7 H3L0) VH: EVQLVESGGGLVQPGRSLRLSCAASGYTFTSYVMHWVRQMPGKGLEWMGYINPYNDGTKYNEKFQGRVTITSDKSTSTAYMELSRLRSDDTAVYYCARGTYYYGSRVFDYWGQGTLVTVSS VL: DIVMTQAAPSIPVTPGESVSISCRSSKSLLNSNGNTYLYWFLQRPGQSPQLLIYRMSNLASGVPDRFSGSGSGTAFTLRISRVEAEDVGVYYCMQHLEYPFTFGAGTKLELK"
